Paper PMC8635971, “A nanocompartment system contributes to defense against oxidative stress in Mycobacterium tuberculosis” (eLife, 2021)

Target: the molecule itself
Test: SDS-PAGE of unboiled (native state) samples

B1: unencapsulated (naked) DyP purified from E. coli (enzyme)
chain: MAVPAVSPQPILAPLTPAAIFLVATIGADGEATVHDALSKISGLVRAIGFRDPTKHLSVVVSIGSDAWDRLFAGPRPTELHPFVELTGPRHTAPATPGDLLFHIRAETMDVCFELAGRILKSMGDAVTVVDEVHGFRFFDNRDLLGFVDGTENPSGPIAIKATTIGDEDRNFAGSCYVHVQKYVHDMASWESLSVTEQERVIGRTKLDDIELDDNAKPANSHVALNVITDDDGTERKIVRHNMPFGEVGKGEYGTYFIGYSRTPTVTEQMLRNMFLGDPAGNTDRVLDFSTAVTGGLFFSPTIDFLDHPPPLPQAATPTLAAGSLSIGSLKGSPR
notes: dye-decolorizing peroxidase DyP, Rv0799c, Mycobacterium tuberculosis; Tetramer seen after addition of hemin; The methods say the SUMO tag was removed; the results call the protein SUMO-tagged; A tetramer of 144 kDa would fit an untagged monomer of about 36 kDa (surmise); also called free DyP; SUMO-tagged unencapsulated DyP
With B1 the “stoichiometry N” value was 4.
